Data published in patent publication US20250243289A1 (PROMETHEUS BIOSCIENCES, published 2025).
Several values for one entry are separate records, joined by “and”; a condition that tells them apart may be missing. Identical values can stand only once.

Columns and labels:
[1] = target: T1, recombinant human TL1A protein (tumor necrosis factor-like cytokine 1A) (human, UniProt O95150 72-251); test: cell-based or functional assay
T1 sequence (looked up): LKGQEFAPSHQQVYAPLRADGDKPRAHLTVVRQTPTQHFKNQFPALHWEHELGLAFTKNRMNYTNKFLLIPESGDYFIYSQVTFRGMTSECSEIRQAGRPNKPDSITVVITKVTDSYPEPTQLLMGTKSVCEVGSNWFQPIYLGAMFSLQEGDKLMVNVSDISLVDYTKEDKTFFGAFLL

[2] = target: T2, recombinant cynomolgus monkey TL1A protein (cynomolgus monkey, UniProt G7PRK8 72-251); test: cell-based or functional assay
T2 sequence: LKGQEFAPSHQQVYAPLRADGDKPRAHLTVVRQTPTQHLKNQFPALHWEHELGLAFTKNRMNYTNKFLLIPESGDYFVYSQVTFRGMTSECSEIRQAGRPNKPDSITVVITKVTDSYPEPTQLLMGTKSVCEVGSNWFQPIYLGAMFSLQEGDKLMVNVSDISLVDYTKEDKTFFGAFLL

[3] = target: monkey TL1A in the in vitro monkey whole blood IFN-γ assay (monkey); test: cell-based or functional assay
[4] = target: T3, human TL1A, endogenous in human whole blood (human, UniProt O95150 72-251, limits assumed); test: cell-based or functional assay
T3 sequence (looked up): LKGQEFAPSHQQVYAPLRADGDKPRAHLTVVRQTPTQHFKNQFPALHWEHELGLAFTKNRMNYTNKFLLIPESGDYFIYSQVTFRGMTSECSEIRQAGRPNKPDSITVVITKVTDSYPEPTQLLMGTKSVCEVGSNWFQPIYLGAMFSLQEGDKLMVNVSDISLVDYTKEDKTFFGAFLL

recombinant TL1A antigen = target: T4, recombinant TL1A antigen (UniProt O95150 72-251, limits assumed); test: ELISA titration against recombinant TL1A antigen
T4 sequence (looked up): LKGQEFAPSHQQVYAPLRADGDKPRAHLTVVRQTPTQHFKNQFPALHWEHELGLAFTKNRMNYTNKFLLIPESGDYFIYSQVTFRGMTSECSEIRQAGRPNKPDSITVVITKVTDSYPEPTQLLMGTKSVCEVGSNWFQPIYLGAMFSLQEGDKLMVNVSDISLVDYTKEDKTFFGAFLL

B1: anti-TL1A antibody A219 (antibody, V domains shown)
VH: QVQLVQSGAEVKKPGASVKVSCKASGFDIQDTYMHWVKQRPGQGLEWMGRIDPASGHTKYDPKFQVRVTITRDTSTSTVYLELSSLRSEDTAVYYCARSGGLPDVWGQGTTVTVSS
VL: EIVLTQSPGTLSLSPGERATLSCRASSSVSYMYWYQQKPGQAPRPLIYATSNLASGIPDRFSGSGSGTDFTLTISRLEPEDFAVYYCQQWEGNPRTFGGGTKLEIK
[1]
  inhibition of human TL1A-induced caspase activation in TF-1 cells (IC50): 0.27 nM
[2]
  inhibition of monkey TL1A-induced caspase activation in TF-1 cells (IC50): 0.59 nM
  inhibition of the IFN-γ response in monkey whole blood stimulated with immune complex, IL-12 and IL-18 (mean IC50): 1.54 nM and 289 ng/ml
[3]
  IC50 of the in vitro monkey whole blood IFN-γ release assay: 1.54 nM and 289 ng/mL

B2: A147 (antibody, human IgG1, V domains shown)
VH: QVQLVQSGAEVKKPGASVKVSCKASGFDIQDTYMHWVKQRPGQGLEWMGRIEPASGHIKYDPKFQGRVTMTRDTSTSTVYMELSSLRSEDTAVYYCARSGGLPDWWGQGTTVTVSS
VL: EIVLTQSPGTLSLSPGERATLSCRASSSVSYMYWYQQKPGQAPRPLIYATSNLASGIPDRFSGSGSGTDFTLTISRLEPEDFAVYYCQQWEGNPRTFGGGTKLEIK
[4]
  % Inhibition at 1 nM Ig (interferon gamma release in human blood): 51.3%
  % Inhibition at 10 nM Ig (interferon gamma release in human blood): 72.4%

B3: A217 (antibody, human IgG1, V domains shown)
VH: QVQLVQSGAEVKKPGASVKVSCKASGFDIQDTYMHWVKQRPGQGLEWMGRIDPASGHTKYDPKFQVRVTITRDTSTSTVYMELSSLRSEDTAVYYCARSGGLPDVWGQGTTVTVSS
VL: EIVLTQSPGTLSLSPGERATLSCRASSSVSYMYWYQQKPGQAPRPLIYATSNLASGIPDRFSGSGSGTDFTLTISRLEPEDFAVYYCQQWEGNPRTFGGGTKLEIK
[4]
  % Inhibition at 1 nM Ig (interferon gamma release in human blood): 46%
  % Inhibition at 10 nM Ig (interferon gamma release in human blood): 72.2%

B4: A220 (antibody, human IgG1, V domains shown)
VH: QVQLVQSGAEVKKPGASVKVSCKASGFDIQDTYMHWVKQRPGQGLEWMGRIDPASGHTKYDPKFQVRVTMTRDTSTSTAYLELSSLRSEDTAVYYCARSGGLPDVWGQGTTVTVSS
VL: EIVLTQSPGTLSLSPGERATLSCRASSSVSYMYWYQQKPGQAPRPWIYATSNLASGIPDRFSGSGSGTDFTLTISRLEPEDFAVYYCQQWEGNPRTFGGGTKLEIK
[4]
  % Inhibition at 1 nM Ig (interferon gamma release in human blood): 36.9%
  % Inhibition at 10 nM Ig (interferon gamma release in human blood): 63.2%

B5: A219 (antibody, V domains shown)
VH: QVQLVQSGAEVKKPGASVKVSCKASGFDIQDTYMHWVKQRPGQGLEWMGRIDPASGHTKYDPKFQVRVTITRDTSTSTVYLELSSLRSEDTAVYYCARSGGLPDVWGQGTTVTVSS
VL: EIVLTQSPGTLSLSPGERATLSCRASSSVSYMYWYQQKPGQAPRPLIYATSNLASGIPDRFSGSGSGTDFTLTISRLEPEDFAVYYCQQWEGNPRTFGGGTKLEIK
[4]
  % Inhibition at 1 nM Ig (interferon gamma release in human blood): 59.8%
  % Inhibition at 10 nM Ig (interferon gamma release in human blood): 75.2%

B6: A212 (antibody, human IgG1, V domains shown)
VH: QVQLVQSGAEVKKPGASVKVSCKASGFDIQDTYMHWVRQRPGQGLEWIGRIDPASGHTKYDPKFQVRATITTDTSTSTAYLELSSLRSEDTAVYYCARSGGLPDVWGQGTTVTVSS
VL: EIVLTQSPGTLSLSPGERATLSCRASSSVSYMYWYQQKPGQAPRPLIYATSNLASGIPDRFSGSGSGTDFTLTISRLEPEDFAVYYCQQWEGNPRTFGGGTKLEIK
[4]
  % Inhibition at 1 nM Ig (interferon gamma release in human blood): 46.8%
  % Inhibition at 10 nM Ig (interferon gamma release in human blood): 71.2%

B7: A213 (antibody, human IgG1, V domains shown)
VH: QVQLVQSGAEVKKPGASVKVSCKASGFDIQDTYMHWVRQRPGQGLEWMGRIDPASGHTKYDPKFQVRVTITTDTSTSTVYMELSSLRSEDTAVYYCARSGGLPDVWGQGTTVTVSS
VL: EIVLTQSPGTLSLSPGERATLSCRASSSVSYMYWYQQKPGQAPRPLIYATSNLASGIPDRFSGSGSGTDFTLTISRLEPEDFAVYYCQQWEGNPRTFGGGTKLEIK
[4]
  % Inhibition at 1 nM Ig (interferon gamma release in human blood): 48.6%
  % Inhibition at 10 nM Ig (interferon gamma release in human blood): 69.8%

B8: anti-TL1A antibody with heavy chain SEQ ID NO: 379 (S228P, L235E) and light chain SEQ ID NO: 381 (antibody, human IgG4 S228P, kappa)
heavy: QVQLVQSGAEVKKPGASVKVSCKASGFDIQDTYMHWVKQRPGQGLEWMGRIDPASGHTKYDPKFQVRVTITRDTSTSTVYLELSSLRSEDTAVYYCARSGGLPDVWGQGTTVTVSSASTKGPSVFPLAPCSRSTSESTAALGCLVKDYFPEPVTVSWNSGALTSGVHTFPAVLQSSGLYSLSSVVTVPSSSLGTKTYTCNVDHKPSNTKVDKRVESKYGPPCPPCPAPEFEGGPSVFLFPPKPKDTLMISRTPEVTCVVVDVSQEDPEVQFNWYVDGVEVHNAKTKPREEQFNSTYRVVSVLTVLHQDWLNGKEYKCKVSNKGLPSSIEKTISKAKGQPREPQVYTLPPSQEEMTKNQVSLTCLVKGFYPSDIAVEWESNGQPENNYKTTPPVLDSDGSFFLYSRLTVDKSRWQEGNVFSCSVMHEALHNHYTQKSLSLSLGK
light: EIVLTQSPGTLSLSPGERATLSCRASSSVSYMYWYQQKPGQAPRPLIYATSNLASGIPDRFSGSGSGTDFTLTISRLEPEDFAVYYCQQWEGNPRTFGGGTKLEIKRTVAAPSVFIFPPSDEQLKSGTASVVCLLNNFYPREAKVQWKVDNALQSGNSQESVTEQDSKDSTYSLSSTLTLSKADYEKHKVYACEVTHQGLSSPVTKSFNRGEC
notes: IgG4
Recombinant TL1A antigen
  EC50: 0.324 nM
